{"source": "patent US20220412989A1", "about": "“COMPOSITIONS AND METHODS FOR DETECTING CELLS UNDERGOING FERROPTOSIS USING AN ANTIBODY” (THE TRUSTEES OF COLUMBIA UNIVERSITY IN THE CITY OF NEW YORK, priority 2020, published 2022)", "key": {"[1]": {"target": "T1, transferrin receptor protein 1 (Homo sapiens, UniProt P02786)", "T1 construct": "First, we incubated 3F3-FMA with a cell lysate overnight; endogenous in cells; host or cells: HT-1080 (ATCC CRL-7951)", "T1 sequence (P02786 whole entry)": "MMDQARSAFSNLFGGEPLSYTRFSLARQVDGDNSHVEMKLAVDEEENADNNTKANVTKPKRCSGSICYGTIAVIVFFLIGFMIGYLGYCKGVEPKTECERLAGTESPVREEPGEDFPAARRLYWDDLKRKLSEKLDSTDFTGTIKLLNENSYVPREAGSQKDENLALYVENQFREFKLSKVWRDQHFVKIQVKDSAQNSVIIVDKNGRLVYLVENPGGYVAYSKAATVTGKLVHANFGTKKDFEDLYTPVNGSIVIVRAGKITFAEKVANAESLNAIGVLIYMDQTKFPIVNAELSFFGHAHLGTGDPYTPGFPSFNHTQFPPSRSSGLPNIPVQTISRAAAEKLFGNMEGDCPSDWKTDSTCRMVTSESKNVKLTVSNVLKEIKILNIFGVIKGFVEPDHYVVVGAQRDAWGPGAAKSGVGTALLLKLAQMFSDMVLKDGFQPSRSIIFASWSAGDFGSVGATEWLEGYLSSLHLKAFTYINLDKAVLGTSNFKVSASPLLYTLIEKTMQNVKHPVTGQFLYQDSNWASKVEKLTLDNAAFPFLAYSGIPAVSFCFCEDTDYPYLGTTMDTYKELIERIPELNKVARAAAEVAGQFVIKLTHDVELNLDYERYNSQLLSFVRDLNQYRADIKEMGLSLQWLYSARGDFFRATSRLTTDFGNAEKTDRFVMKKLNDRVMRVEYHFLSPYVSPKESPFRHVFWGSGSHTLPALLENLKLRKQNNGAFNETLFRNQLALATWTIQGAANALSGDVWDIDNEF", "test": "siRNA knockdown of TfR1 followed by immunofluorescence", "type": "cell-based", "settings": "HT-1080 cells, siTfR1 vs siNT", "procedure": "10 μM of siRNAs were combined with 250 μl of Opti-MEM serum-free media (Life Technologies 31985-070) in one tube. 6 μl of Lipofectamine RNAiMAX (Thermo Fisher Scientific 13778150) was combined with 250 μl of Opti-Mem media in another tube. They were equilibrated at r.t. for 5 min. Then two tubes were combined, transferred into 6-well plate and incubated at 37° C. for 20 min. 0.25 million HT-1080 cells were then added to 6-well plate and incubated for 48 h. Cells were reseeded in regular media for additional 24 h. Regular IF procedure was then conducted."}, "[2]": {"system": "A-673, SK-BR-3, Huh-7 and SK-LMS-1 cells", "test": "Immunofluorescence staining in other cancer cell lines", "type": "cell-based, human", "settings": "1 μM RSL3, 4 h", "procedure": "HT-1080 (ATCC Cat #CRL-7951, RRID:CVCL_0317), A-673, SK-BR-3, SK-LMS-1 and Huh-7 cells were treated with 1 μM RSL3 for 4 h, 15 μM erastin for 8 h, 10 μM IKE for 8 h, 15 μM FINO2 for 8 h, 10 μM FIN56 for 8 h, 100 μM tBuOOH for 8 h, 1 μM staurosporine (STS) for 6 h, 2 μM camptothecin (CPT) for 24 h, 1 μM RSL3+5 μM Fer-1 for 4 h and 10 μM IKE+5 μM Fer-1 for 8 h on poly-lysine-coated cover slips (Sigma Aldrich P4832) in 24-well plate. Media were taken out and the cells were gently washed with PBS^++ (PBS with 1 mM CaCl2) and 0.5 mM MgCl2) twice. The cells were fixed and permeabilized by adding 200 μL/well of 4% paraformaldehyde (PFA) in PBS with 0.1% Triton X-100 (PBT), and incubated at room temperature for 18 min. The cells were then washed with PBT three times. Then the cells were blocked with 5% goat serum (ThermoFisher 50197Z) in PBT for 1 h at room temperature. […] When applicable, line-scan analysis was performed on representative confocal microscopy images using Zeiss LSM software to qualitatively visualize fluorescence overlap.\nThe quantification of the intensity of antibodies was analyzed using CellProfiler 3.1.8 (Carpenter et al., 2006) (CellProfiler Image Analysis Software, RRID:SCR_007358). […] Then mean intensities and size areas of nuclei, cytoplasm and plasma membranes were then measured and reported. […]"}}, "data": [{"molecule": "3F3-FMA: murine monoclonal IgG1 raised against ferroptotic membrane fractions; antigen is human transferrin receptor protein 1 (TfR1) (antibody, V domains shown) VH: EVLLQQSGTELVRPGALVKLSCKASGFNIQDLYIHWVKQRPEQGLEWIGWIDPETDNTIYDPKFQGKASITADTSSNTAYLQLSSLTSEDTAMYYCSTGLLQWYFDVWGAGTAVTVSS VL: DIVMTQSPSSLAMSIGQKVTMRCKSSQSLLNSYNQKNCLAWYQQKPGQSPKLLLYFVSTRESGVPDRFIGSGSGTDFTLTISSVQAEDLADYFCQQHYSTPLTFGAGTKLELK", "values": [{"measurement": "staining in siTfR1-transfected cells", "setting": "[1]", "value": "wasn't any detectable staining"}, {"measurement": "staining upon ferroptosis induction", "setting": "[2]", "value": "staining concentrated at the cell boundaries and became brighter"}]}]}
